Laboratory results taken from patent US20240325557A1, “TREATMENT OF CANCER” (INNATE PHARMA, priority 2020, published 2024).
Where a chain is given by its changes, count along the chain named.

T1: Nectin-4 Mutant 1 (S58P/G59D/Q61A/N106D/P107A) (Homo sapiens, UniProt Q96NY8, G59D/N106D/P107A/Q61A/S58P)
T1 construct: expressed in transfected cells; host or cells: HEK293T
T1 sequence (Q96NY8 32-510 S58P/G59D/Q61A/N106D/P107A): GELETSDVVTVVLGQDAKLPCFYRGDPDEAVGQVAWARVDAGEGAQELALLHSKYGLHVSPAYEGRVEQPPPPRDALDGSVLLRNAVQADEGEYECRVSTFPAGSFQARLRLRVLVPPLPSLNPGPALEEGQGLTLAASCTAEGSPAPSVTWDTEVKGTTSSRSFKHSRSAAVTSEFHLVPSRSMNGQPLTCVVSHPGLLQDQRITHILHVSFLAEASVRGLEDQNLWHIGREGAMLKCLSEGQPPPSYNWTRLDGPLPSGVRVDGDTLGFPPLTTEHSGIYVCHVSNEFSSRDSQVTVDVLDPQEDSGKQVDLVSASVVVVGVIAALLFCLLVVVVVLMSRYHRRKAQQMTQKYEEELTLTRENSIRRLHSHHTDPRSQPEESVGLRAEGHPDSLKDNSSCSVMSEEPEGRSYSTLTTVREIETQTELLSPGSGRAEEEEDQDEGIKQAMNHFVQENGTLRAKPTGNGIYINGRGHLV

T2: Nectin-4 Mutant 7bis (A72P/G73N/K197T/S199A) (Homo sapiens, UniProt Q96NY8, A72P/G73N/K197T/S199A)
T2 construct: expressed in transfected cells; host or cells: HEK293T
T2 sequence (Q96NY8 32-510 A72P/G73N/K197T/S199A): T1 sequence (Q96NY8 32-510 S58P/G59D/Q61A/N106D/P107A) with P27S, D28G, A30Q, A41P, G42N, D75N, A76P, K166T, S168A

T3: Nectin-4 on SUM185 cells (Homo sapiens, UniProt Q96NY8)
T3 construct: host or cells: SUM185
T3 sequence (Q96NY8 32-510): T1 sequence (Q96NY8 32-510 S58P/G59D/Q61A/N106D/P107A) with P27S, D28G, A30Q, D75N, A76P

B1: N41 (antibody, V domains shown)
VH: QVQLKQSGPGLVQPSQSLSITCTVSGFSLTNYGVHWVRQSPGKGLEWLGVIWSGGSTDYNAAFISRLSISKDTSKSQVFFKMNSLQADDTAIYYCARELIHAMDNWGQGTSVTVSS
VL: DIQMTQSPASLSVSVGETVTITCRASENIYSNLAWYQQKQGNSPQLLVFAATNLADGVPSRFSGSGSGTQYSLKINSLQSEDFGTYYCQHFWGTPTFGGGTKLEIK
B2: 5E7 (antibody, V domains shown)
VH: QVQLQQPGAELVKPGASVKLSCKASGYIFTSYWMHWVKQRPGQGLEWIGEIDPSDSYTNYNQKFKGKATLTLDKSSSTTYMQLSSLTSEDSAVYYCVRGYGNYGDYWGQGTTLTVSS
VL: DVVMTQAAFSNPVTLGTSASISCRSSKSLLHSNGITYLYWYLQKPGQSPQLLIYQMSNLASGVPDRFSSSGSGTDFTLRISRVEAEDVGVYYCAQNLELPWTFGGGTKLEIK
B3: 10B12: anti-Nectin-4 antibody, VH SEQ ID NO: 24, VL SEQ ID NO: 25, binds junction of domain C1 and V (antibody, listed as Mus musculus, V domains shown)
VH: B2 VH with I28T, L72V, T79A
VL: B2 VL with V2I

Columns and labels:
[1] = molecular target: T1, Nectin-4 Mutant 1 (S58P/G59D/Q61A/N106D/P107A); experiment: Binding to cell surface expressed Nectin-4 point mutant; conditions: HEK-293T
From the text: (§1) Combined with the published structures of the Nectin-4 domains, Nectin-4 mutations at surface exposed amino acids residues were designed. Nectin-4 domain structure was modelled based on Protein Data Bank reference: 4FRW (domains V et C1). Human Nectin-4 used was NCBI Reference Sequence: NP_112178.2, mouse Nectin-4 used was NCBI Reference Sequence: AAL79833.1, cynomolgus Nectin-4 used was NCBI Reference Sequence: XP_005541277.1, rat Nectin-4 used was NCBI Reference Sequence: NP_001102546.1. The cells expressing the Nectin-4 mutants are then be used for testing anti-Nectin-4 antibodies for loss of binding to different Nectin-4 mutants to identify antibodies that bind to the same site on Nectin-4. […] FIGS. 12A and 12B show a molecular model of the human Nectin-4 protein, indicating the position of substituted residues in mutants 7 (12A) and in mutants 7bis (12B); these mutants are in the C1 domain identify two sites at the junction of domain C1 and V domain that are on opposing faces of the Nectin-4 protein.
(§2) Nectin-4 mutants were generated by PCR. The sequences amplified were run on agarose gel and purified using the Macherey Nagel PCR Clean-Up Gel Extraction kit. The purified PCR products generated for each mutant were then ligated into an expression vector, with the ClonTech InFusion system. The vectors containing the mutated sequences were prepared as Miniprep and sequenced. After sequencing, the vectors containing the mutated sequences were prepared as Midiprep using the Promega PureYield™ Plasmid Midiprep System. HEK293T cells were grown in DMEM medium (Invitrogen), transfected with vectors using Invitrogen's Lipofectamine 2000 and incubated at 37° C. in a CO2 incubator for 48 hours prior to testing for transgene expression. The targeted amino acid mutations are shown in Table 2 below, listing the residue present in wild-type Nectin-4/position of residue/residue present in mutant Nectin-4, with position reference being to the Nectin-4 protein with leader peptide shown in SEQ ID NO: 1.

[2] = molecular target: T2, Nectin-4 Mutant 7bis (A72P/G73N/K197T/S199A); experiment: as above; conditions: HEK-293T
From the text: as §1, §2

Nectin-4 on SUM185 cells = molecular target: T3, Nectin-4 on SUM185 cells; experiment: Flow cytometry titration on SUM185 cells; format: binding; conditions: cells detached with trypsin
Description: In this experiment, the ability of anti-Nectin-4 Abs to bind to Nectin-4 on SUM185 cells (expressing relatively high levels of Nectin-4) was assessed by flow cytometry. […] Briefly, SUM185 cells were detached from the flask with trypsin (37° C. for 5 min) and then washed once with media. 50 000 cells were incubated with a concentration range of test antibodies starting from 20 μg/ml (8 points, dilution factor 4) for 30 minutes at 4° C. […] Cells were washed twice with ice-cold SB. Acquisition was done on a flow cytometer.

Molecule	association with Nectin-4 Mutant 1 [1]	association with Nectin-4 Mutant 7bis [2]	binding profile on SUM185 cells (Nectin-4 on SUM185 cells)
B1	−	+	
B2	+	−	lower plateau for binding to the SUM185 cells
B3	+	−	lower plateau for binding to the SUM185 cells
